Patent US20200289603A1 (ELIXIRON IMMUNOTHERAPEUTICS HONG KONG, published 2020)

Experiments:
[1] = biological target: recombinant human IFNγ protein (R&D systems, 285-IF-100) (human) (UniProt P01579); experiment: BLI (ForteBio Octet RED96); summary sentence to Table 10
[2] = biological target: recombinant human IFNγ protein (R&D systems, 285-IF-100) (human) (UniProt P01579); experiment: BLI (ForteBio Octet RED96); antibody captured on AHC anti-hIgG Fc biosensor, recombinant human IFNγ in solution; 1:1 Langmuir fit
[3] = biological target: T1, recombinant human IFNγ protein (R&D systems, 285-IF-100) (human, UniProt P01579 24-166); experiment: BLI (ForteBio Octet RED96); summary sentence to Table 9
T1 construct: it may include the signal peptide; also called IFNg; interferon-gamma
T1 sequence: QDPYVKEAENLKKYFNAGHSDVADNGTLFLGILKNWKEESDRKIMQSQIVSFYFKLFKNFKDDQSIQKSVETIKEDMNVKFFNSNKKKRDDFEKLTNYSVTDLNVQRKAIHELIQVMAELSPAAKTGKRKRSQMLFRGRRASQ

BSA = biological target: T2, BSA (UniProt P02769 25-607); experiment: ELISA on plate coated with BSA (2 µg/mL)
T2 construct: also called bovine serum albumin
T2 sequence (P02769 25-607 limits assumed): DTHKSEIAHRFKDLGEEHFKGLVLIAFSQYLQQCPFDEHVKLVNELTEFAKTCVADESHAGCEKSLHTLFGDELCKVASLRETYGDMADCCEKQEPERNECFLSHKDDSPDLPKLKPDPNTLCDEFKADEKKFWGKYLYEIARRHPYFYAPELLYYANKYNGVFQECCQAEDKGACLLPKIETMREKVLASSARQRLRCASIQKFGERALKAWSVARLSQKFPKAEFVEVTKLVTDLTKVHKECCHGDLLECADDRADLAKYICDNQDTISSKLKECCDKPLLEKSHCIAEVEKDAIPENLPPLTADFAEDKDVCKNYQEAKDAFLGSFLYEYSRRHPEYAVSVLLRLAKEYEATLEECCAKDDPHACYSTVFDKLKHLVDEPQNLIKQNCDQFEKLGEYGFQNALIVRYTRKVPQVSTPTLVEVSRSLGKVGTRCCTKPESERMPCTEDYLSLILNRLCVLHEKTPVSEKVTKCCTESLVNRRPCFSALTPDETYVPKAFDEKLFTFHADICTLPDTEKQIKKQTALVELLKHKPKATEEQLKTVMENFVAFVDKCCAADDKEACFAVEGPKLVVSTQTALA

[4] = biological target: T1, recombinant human IFNγ protein (R&D …); experiment: cell-based or functional assay
[5] = biological target: T1, recombinant human IFNγ protein (R&D …); experiment: BLI (ForteBio Octet RED96); summary sentence to Table 10

With AMG811 (antibody) the Kd [1] was less than 100 pM.

B1: 2F2 (antibody, from a related filing, V domains shown)
VH: EVQLVESGGGLVKPGESLRLACVASGFNFSDYYMTWIRQAPGKGLEWVSYISNSGSHTYYADAVKGRFTVSRDNAKNSLYLQMTSLRGEDTAIYFCARDPSIMRGTYYMDVWGKGTTVTVSS
VL: QSVLTQPPSASGTPGQRVTISCSGSSSNIGTNPVSWYQQFPGMAPKLLIYFNNQRPSGVPERFSGSKSGTPASLAIGGLQSEDEANYYCASWDDTLNGLVFGGGTKLTVL
In the case of B1, the Kd [2] is reported as 317 pM, the koff [2] is reported as 0.000109 s⁻¹ and the kon [2] is reported as 344000 M⁻¹ s⁻¹.

B2: 2B6 (antibody, human IgG1, lambda, V domains shown)
VH: EVQLVESGGGLVKPGGSLRLSCAASGFPFSRYSMHWVRQAPGKGLEWVSSMTSRTNHKYYADSLKGRFLISRDNDRDSLYLEMNSLGVEDTAIYFCARGYDTSGSDSGVDFQYWGQGTLVTVSS
VL: NFMLTQPHSVSESPGKTITISCTRGRGYIASYYVQWYQQRPGGVPKIVVFEDTQRPSGVPDRISGSIDTSTNSASLTISGLQTEDEADYYCQSYDDANHVIFGGGTKLTVLG
notes: Human IgG1 lambda; also called 2B6 anti-IFNγ mAb
B2 was tested, and the Kd [3] was less than 100 pM, the binding result (BSA) was “no binding (tested: 1 µg/mL and 0.1 µg/mL)” and the “inhibition of HLA-DR expression on THP-1 cells stimulated with 2 ng/mL recombinant human IFN-γ, IC50” value [4] was 3.5 ng/mL.

B3: BA (antibody, V domains shown)
VH: EVQLVESGGGLVKPGGSLRLSCAASGFPFSRYSMHWVRQAPGKGLEWVSSMTSRTNHKYYADSLKGRFLISRDNDRDSLYLEMNSLGVEDTAIYFCARGYDTSGSDSGVDFQYWGQGTLVTVSS
VL: NFMLTQPLSVSGYPGKTIVISCVRSSGSVASHYVQWFQQRPGSAPAMVIYEDSHRPSGIPDRFSGSVDASSNSASLTISGLKTEDEADYFCQSYYGNNQVLFGGGTKLTVL
notes: Expressed from the same human IgG1 lambda vector as 2A6 and 2B6; also called antibody having the 2B6-VH and 2A6-VL
B3: no binding (tested: 1 µg/mL and 0.1 µg/mL) (BSA).

B4: 2A6 (antibody, human IgG1, lambda, V domains shown)
VH: EVQLVESGGGLVKPGDSLTVSCVASGFTFSNYFIHWVRQAPGKGLEWVATISGRTKYMFYSDSLRGRFTVSRDNANNSVYLHMSSLRGEDTALYYCVRGYDHSDSNSAADLLHWGRGTLVTVSS
VL: NFMLTQPLSVSGYPGKTIVISCVRSSGSVASHYVQWFQQRPGSAPAMVIYEDSHRPSGIPDRFSGSVDASSNSASLTISGLKTEDEADYFCQSYYGNNQVLFGGGTKLTVLG
modifications: partial N-linked glycosylation at position 76 of the VH region
notes: Human IgG1 lambda, cloned from a single patient B cell and expressed in FreeStyle 293-F cells; also called 2A6 anti-IFNγ mAb
With B4 the Kd [3] was less than 100 pM, the binding result (BSA) was “no binding (tested: 1 µg/mL and 0.1 µg/mL)” and the “inhibition of HLA-DR expression on THP-1 cells stimulated with 2 ng/mL recombinant human IFN-γ, IC50” value [4] was 3.4 ng/mL.

B5: AB (antibody, V domains shown)
VH: EVQLVESGGGLVKPGDSLTVSCVASGFTFSNYFIHWVRQAPGKGLEWVATISGRTKYMFYSDSLRGRFTVSRDNANNSVYLHMSSLRGEDTALYYCVRGYDHSDSNSAADLLHWGRGTLVTVSS
VL: NFMLTQPHSVSESPGKTITISCTRGRGYIASYYVQWYQQRPGGVPKIVVFEDTQRPSGVPDRISGSIDTSTNSASLTISGLQTEDEADYYCQSYDDANHVIFGGGTKLTVLG
For B5, the Kd [5] was less than 100 pM and the binding result (BSA) was “no binding (tested: 1 µg/mL and 0.1 µg/mL)”.

B6: 1E8 (antibody, from a related filing, V domains shown)
VH: EVQLLESGGGLVQPGGPLRLSCAASGFTFSIYSMNWVRQAPGKGLEWVSSISGSGDNTYYADSVKGRFTITRDSSKNTLYLQMNTLRAEDTAVYFCAKSGRNIISPGFDSWGQGTLVTVSS
VL: QPVLTQPPSASASLGASVTLTCTLNSDYGDYKVDWYQQRPGKGPRFVMRVGTGGIVGSKGDGIPDRFSVLGSGLNRFLTIKNIQEEDESDYYCGADHGSANNFIWVFGGGTKLTVL
Work on B6 yielded a Kd [2] of 261 pM, a koff [2] of 0.000121 s⁻¹ and a kon [2] of 464000 M⁻¹ s⁻¹.
